Measurements from PMC9871336, “Positive charge in the K-loop of the kinesin-3 motor KIF1A regulates superprocessivity by enhancing microtubule affinity in the one-head–bound state” (The Journal of Biological Chemistry, 2022).
Blank lines part the entries; values can stand above or below the molecule they belong to.

Legend:
1A-K1L12 = tested on: T1, 1A-K1L12; experiment: stopped-flow ATP-triggered half-site release of mant-ADP; assay type: biochemical, Rattus norvegicus; details: taxol-stabilized microtubules; 1HB complex with mant-ADP; Mg-ATP varied; half-maximal ATP for mant-ADP release, not steady-state ATPase
T1 construct: gene Kif1a; fused to D. melanogaster KHC neck-coil for dimerization; C-terminal His6; E. coli

[1] = substrate: Nc1ncnc2c1ncn2[C@@H]1O[C@H](COP(=O)(O)OP(=O)(O)OP(=O)(O)O)[C@@H](O)[C@H]1O; experiment: as above; assay type: biochemical, Rattus norvegicus; details: taxol-stabilized microtubules; 1HB complex with mant-ADP; Mg-ATP varied; half-maximal ATP for mant-ADP release, not steady-state ATPase

Km (1A-K1L12): 64 ± 28 µM
Molecule: Nc1ncnc2c1ncn2[C@@H]1O[C@H](COP(=O)(O)OP(=O)(O)OP(=O)(O)O)[C@@H](O)[C@H]1O [ATP]

B1: 1A393 (Rattus norvegicus) (protein)
chain: MAGASVKVAVRVRPFNSREMSRDSKCIIQMSGSTTTIVNPKQPKETPKSFSFDYSYWSHTSPEDINYASQKQVYRDIGEEMLQHAFEGYNVCIFAYGQTGAGKSYTMMGKQEKDQQGIIPQLCEDLFSRINDTTNDNMSYSVEVSYMEIYCERVRDLLNPKNKGNLRVREHPLLGPYVEDLSKLAVTSYNDIQDLMDSGNKARTVAATNMNETSSRSHAVFNIIFTQKRHDAETNITTEKVSKISLVDLAGSERADSTGAKGTRLKEGANINKSLTTLGKVISALAEMDSGPNKNKKKKKTDFIPYRDSVLTWLLRENLGGNSRTAMVAALSPADINYDETLSTLRYADRAKQIRCNAIINEDPNNKLIRELKDEVTRLRDLLYAQGLGDITD
notes: KIF1A 1-393 (motor, neck linker, neck-coil) fused to D. melanogaster KHC neck-coil 345-406 for dimerization (biochemical version; 345-560 plus GFP for single-molecule); C-terminal His6; E. coli; dimer
Km [1]: 96 ± 53 µM

B2: 1A368 (Rattus norvegicus) (protein)
chain: MAGASVKVAVRVRPFNSREMSRDSKCIIQMSGSTTTIVNPKQPKETPKSFSFDYSYWSHTSPEDINYASQKQVYRDIGEEMLQHAFEGYNVCIFAYGQTGAGKSYTMMGKQEKDQQGIIPQLCEDLFSRINDTTNDNMSYSVEVSYMEIYCERVRDLLNPKNKGNLRVREHPLLGPYVEDLSKLAVTSYNDIQDLMDSGNKARTVAATNMNETSSRSHAVFNIIFTQKRHDAETNITTEKVSKISLVDLAGSERADSTGAKGTRLKEGANINKSLTTLGKVISALAEMDSGPNKNKKKKKTDFIPYRDSVLTWLLRENLGGNSRTAMVAALSPADINYDETLSTLRYADRAKQIRCNAIINEDPNNKL
notes: KIF1A 1-368 (motor, neck linker) fused to D. melanogaster KHC neck-coil 345-406 for dimerization (biochemical version; 345-560 plus GFP for single-molecule); C-terminal His6; E. coli; dimer
Km [1]: 119 ± 20 µM
